Experimental data from the DeepSol protein solubility set.

Assay: soluble on expression in E. coli; label from the status in PepcDB or PDB records

Sequence | soluble on expression in E. coli
MSLNRDKPLKVMLVAAEASGDALGAGLAKALRARLGQGVTFVGIGGAKMAEQGVQSPFDIAQLSILGILESLKAYPRAMARLKDTVALAAREKPDVAVLIDSWGFNIRLAHALRRLDPTLPLVKYVAPQVWAYREGRAQALAKAVDLLLSIQPMDKAYFDAAGLQNVFVGNSALAKRFDHADPGRLRAAIGAAASQQILLVLPGSRPSEIERVMPAFEDAVRRLKVERPDLHIVVPAAYTVAEAVKARVAGWPFRAHVIEDEGLKDDAFLAGDVALACSGTVTTELALAGRPMVVGYKTGAVTYAIVKRLMKPRWITLFNIAAGKAVAPELIQHACEGEGLAREVALRLDDPDLRQRQTAEQYAALDRMGRGMPDPSEAAAEALLDFLSARGALGREGHHHHHH | not soluble
MGSDKIHHHHHHMQVIKQKLTATCAQLTGYLHQPDTNAHQTNLPAIIIVPGGSYTHIPVAQAESLAMAFAGHGYQAFYLEYTLLTDQQPLGLAPVLDLGRAVNLLRQHAAEWHIDPQQITPAGFSVGGHIVALYNDYWATRVATELNVTPAMLKPNNVVLGYPVISPLLGFPKDDATLATWTPTPNELAADQHVNSDNQPTFIWTTADDPIVPATNTLAYATALATAKIPYELHVFKHGPHGLALANAQTAWKPDANQPHVAHWLTLALEWLADNR | not soluble
AIATDCEWFDMTWGSSASSGYCSQSDSDEHELELFYTARTSLRKSRKCRDKDEQSEVDWRKQDLSVTEIQQKVKEYNAQVNSNLFMVLNRDGSYTGFIKVQFKLARPVSLPPPRSVSSSSISSSCLGWDGGCQERTSFYLPRDTVKHLHISSSTRAREVIQALLNKFTVVDNPAKYSLYERSQRDNQVYLRKLADDECPLFLRLCAGPNEKVLSLVLKENETGEVNWDAFSFPELQNFLRILQREEEDHVRQIIRRYTLARDKMKEAMKNFSTPG | soluble
MMDLHTHTVYSDGIGLIRDNVAWAEKRGLKIVGISDHIHFFTPSRFSAYINEINVIKEESEIVVLAGIEANILENGPDITDEFRKKLDYAIASVHEWFGRNGTHEYINYVKKAIMDDNVDIIGHFGNSFPWIGYPTREEIDEILDLAEAYGKAFEISARYKVPDLEFIRECVKRGIKLSLATDAHRPEDVGKVSWSLKMLEKAGGTKEDLIFSEYL | soluble
MVLVVGSGAGGATLARELAIRGIDVTVIERGPCVKDSDAFLCYDEAPDVDILRTSCAGGSTLVAAGNAVRVLENTLKDYGVDITEDLHAIEAELRVRELPDTHTGRGTALIMDAAESLGLGVKKMPKFIDPDKCRPCGKCSFGCPRAAKWSARRFLDEAVEHGAVLIEETEAKNIIVRNGSVSGLRTSRGDFHDETVVLAAGAIETPRILMRAGIDAGNGLFMDTFVTVGGILEGVGFCDEVQMNALIELDGVILSPHFSTLLFPEDDRRNVLGIMVKIADERSGRVEADRIVKHHTVRDISLLSGGAAIAGSILSRAGVGAGTLRSTRPRGAHPGGTASLGEVVDENLETSIEGLFVADASVLPAAPGAPPILTIMALARRLARHIVSVLLEHHHHHH | not soluble
ASIKENSYFAGGVKSLGFNQHGQDVSVGVMLPGEYTFGTQAPERMTVVKGALVVKRVGEADWTTYSSGESFDVEGNSSFELQVKDATAYLCEYL | soluble
MNYGFVKVAAAVPHVKVADCKFNVERIESQIAIAEGKGVQIIVFPEMSITGYTCGDLFGQQILLEEAEMGLMQILNNTRQLDIISIVGMPVVVNSTVINAAVVIQKGKVLGVAAKTYLPNYKEFYEQRWFTSALQLTEDTVRLCGQIVPIGANLLFETSDTTFGIEICEDLWATIPPSSSLALQGAEIIFNMSADNEGIGKHHYLCSLISQQSARCIAGYVFSSCGFGESTTDVVFAGNGLIYENGSLLARSKRFCMEEQLIISEIDVERIRAERRINTTFAASQGNPGDKKAISVATEFVNSKELTLTRDFNSHPFVPQGAELDEHCEEVFSIQIAGLAQRLVHTKAKTAVVGISGGLDSTLALLVCVKTFDKLGLPRKDILGVTMPGFGTTDRTYNNAIDLMKSLGISIREISIQDACIQHFKDIDHDINVHDVTYENSQARERTQILMDIANQTWGMVVGTGDLSELALGWATYNGDHMSMYGVNGSIPKTLVKYLVQWVAENDMDEDAKATLLDIVDTPISPELIPADENLEHHHHHH | soluble
MHHHHHHMELSLASITVPLESIKPSNILPVTVYDQHGFRILFHFARDPLPGRSDVLVVVVSMLSTAPQPIRNIVFQSAVPKVMKVKLQPPSGTELPAFNPIVHPSAITQVLLLANPQKEKVRLRYKLTFTMGDQTYNEMGDVDQFPPPETWGSL | soluble
